Here are results for 1 substance from patent publication EP1189630B1.

Broadly, the Kd is a measure of binding affinity in units of concentration. Low readings indicate tighter binding, high ones weaker binding.

For this experiment, the target named is bovine hemoglobin (bovine) (UniProt P01966). The experiment in a line: solid-phase ligand binding assay (ELISA), hemoglobin-coated wells; one value printed for rHA2, RgpA and Kgp. (In an ELISA, binding on a coated surface is turned into a signal by an enzyme label.)
Sequence of UniProt P01966 (P01966 2-142 limits assumed, chain 1 of 2): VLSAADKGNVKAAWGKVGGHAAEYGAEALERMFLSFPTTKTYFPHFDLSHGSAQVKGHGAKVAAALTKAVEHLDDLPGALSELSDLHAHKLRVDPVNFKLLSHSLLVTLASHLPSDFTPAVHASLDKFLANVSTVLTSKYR
Sequence of UniProt P01966 (P02070 whole entry, chain 2 of 2, further chain): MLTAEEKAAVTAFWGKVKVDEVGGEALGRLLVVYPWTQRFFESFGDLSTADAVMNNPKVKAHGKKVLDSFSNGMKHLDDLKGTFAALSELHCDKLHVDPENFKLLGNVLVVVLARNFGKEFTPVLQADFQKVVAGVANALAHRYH

Take “polydomain Arg-gingipain RgpA isolated from P. gingivalis (ATCC 33277) (from UniProt P28784 228-991) (enzyme)”: the Kd was 2.1 nM.
